The target of assay [1] is T1, dog iRhom2 full length wild type, C-terminally tagged with 3 consecutive copies of the T7 epitope (dog, UniProt Q00M95 1-827).
T1 construct: whole, on cells; also called Dog-iR2-FL-WT-T7
T1 sequence: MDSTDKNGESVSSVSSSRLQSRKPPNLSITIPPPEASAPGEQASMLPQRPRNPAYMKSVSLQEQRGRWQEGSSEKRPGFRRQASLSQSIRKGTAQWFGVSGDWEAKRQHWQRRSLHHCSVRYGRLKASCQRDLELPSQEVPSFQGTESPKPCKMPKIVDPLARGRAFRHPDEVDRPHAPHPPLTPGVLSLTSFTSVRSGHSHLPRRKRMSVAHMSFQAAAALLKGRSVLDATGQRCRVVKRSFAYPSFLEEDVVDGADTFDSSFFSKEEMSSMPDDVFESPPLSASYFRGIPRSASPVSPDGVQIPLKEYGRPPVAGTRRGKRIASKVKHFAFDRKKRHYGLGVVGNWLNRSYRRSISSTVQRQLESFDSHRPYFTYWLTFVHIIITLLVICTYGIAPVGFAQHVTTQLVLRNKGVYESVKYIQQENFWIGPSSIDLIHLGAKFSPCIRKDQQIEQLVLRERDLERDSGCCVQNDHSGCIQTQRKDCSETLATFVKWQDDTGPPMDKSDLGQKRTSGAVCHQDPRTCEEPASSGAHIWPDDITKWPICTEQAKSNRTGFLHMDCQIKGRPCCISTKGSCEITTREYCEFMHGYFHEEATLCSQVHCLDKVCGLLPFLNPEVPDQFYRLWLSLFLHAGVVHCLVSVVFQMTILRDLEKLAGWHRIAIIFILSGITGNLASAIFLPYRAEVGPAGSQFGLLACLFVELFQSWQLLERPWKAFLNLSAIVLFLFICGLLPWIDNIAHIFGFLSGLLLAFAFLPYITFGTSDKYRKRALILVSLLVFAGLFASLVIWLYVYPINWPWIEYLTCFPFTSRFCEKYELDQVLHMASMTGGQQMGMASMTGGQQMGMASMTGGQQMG
Description: FACS, MEF-DKO-Dog-iR2-FL-WT-T7 cells. The method, then: In brief, immortalized MEF-DKO-EV control cells, MEF-DKO-rhesus-iR2-FL-WT-T7 cells, MEF-DKO-cyno-iR2-FL-WT-T7 cells, MEF-DKO-dog-iR2-FL-WT-T7 cells and MEF-DKO-rabbit-iR2-FL-WT-T7 cells, as well as their respective iRhom1 counterparts, were harvested with 10 mM EDTA in PBS, washed and resuspended in FACS buffer (PBS, 3% FBS, 0.05% sodium azide), and seeded in Nunc U-bottom 96-well plates (Thermo Fisher Scientific, USA) at approximately 3×10⁵ cells per well. To pellet cells and remove supernatants, the plates were centrifuged at 1,500 rpm and 4° C. for 3 minutes. For primary staining, cells were resuspended in 100 μl per well of either FACS buffer alone (controls), mouse monoclonal anti-T7 IgG (Merck Millipore, USA) at 3 μg/ml FACS buffer or the antibodies of the present disclosure also at 3 μg/ml FACS buffer and incubated on ice for 1 hour. Afterwards, plates were centrifuged at 1,500 rpm and 4° C. for 3 minutes and washed twice with 200 μl per well of FACS buffer. For secondary staining, cells were spun down and resuspended in 100 μl per well of PE-conjugated goat anti-mouse IgG F(ab′)2 detection fragment (Dianova, Germany) diluted 1:100 in FACS buffer. Protected from light, the cell suspensions were incubated on ice for 1 hour. Plates were then centrifuged at 1,500 rpm and 4° C. for 3 minutes and washed three times with 200 μl per well of FACS buffer. Finally, cells were resuspended in 150 μl per well of FACS buffer and analyzed using a BD Accuri™ C6 Plus flow cytometer (Becton Dickinson, Germany).

Assay [2] deals with T2, human iRhom2 (inactive rhomboid protein 2, isoform 1), endogenously expressed on human cells (human, UniProt Q6PJF5 1-856).
T2 sequence: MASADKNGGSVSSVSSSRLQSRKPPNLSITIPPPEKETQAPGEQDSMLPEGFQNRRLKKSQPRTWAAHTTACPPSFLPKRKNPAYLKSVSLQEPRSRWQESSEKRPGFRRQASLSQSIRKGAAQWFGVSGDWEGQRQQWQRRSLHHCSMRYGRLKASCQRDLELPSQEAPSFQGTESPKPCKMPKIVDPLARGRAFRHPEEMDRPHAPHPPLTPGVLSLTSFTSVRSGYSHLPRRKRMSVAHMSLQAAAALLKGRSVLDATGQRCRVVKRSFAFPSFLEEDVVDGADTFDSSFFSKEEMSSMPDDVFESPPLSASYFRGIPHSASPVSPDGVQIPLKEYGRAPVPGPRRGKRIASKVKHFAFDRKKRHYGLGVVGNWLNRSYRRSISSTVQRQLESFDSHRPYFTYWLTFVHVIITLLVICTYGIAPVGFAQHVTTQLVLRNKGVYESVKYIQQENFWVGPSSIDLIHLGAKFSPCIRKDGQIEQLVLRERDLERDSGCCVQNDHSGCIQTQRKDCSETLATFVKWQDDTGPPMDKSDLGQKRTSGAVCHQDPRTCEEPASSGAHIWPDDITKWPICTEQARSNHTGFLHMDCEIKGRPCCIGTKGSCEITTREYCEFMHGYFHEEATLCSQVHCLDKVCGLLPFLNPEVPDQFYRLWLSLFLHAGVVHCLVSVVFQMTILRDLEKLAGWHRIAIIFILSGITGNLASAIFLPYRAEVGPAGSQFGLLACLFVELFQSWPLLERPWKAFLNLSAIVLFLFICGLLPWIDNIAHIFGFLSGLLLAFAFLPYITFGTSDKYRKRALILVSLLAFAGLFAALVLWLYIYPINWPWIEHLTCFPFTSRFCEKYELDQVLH
Description: cell-based or functional assay.

Positions count from the first letter of the chain named.

B1: antibody 57 (antibody, V domains shown)
VH: QVTLKESGPGILQPSQTLSLTCSFSGFSLSTFGMGVGWIRQPSGKGLEWLAHIWWDDDKYYNPALKSRLTISKDTSKNQIFLKIANVDTADSATFYCARIENYGSNYWYFDVWGTGTTVTVSS
VL: QIVLTQSPAIMSASPGEKVTMTCSASSSVSYMYWYQQKPGSSPRVLIYDTSNLASGVPVRFSGSGSGTSYSLTVSRMEAEDAATYYCQQWNSYPLTFGAGTKLELK
notes: Mouse IgG, kappa light chain; also called clone #57
Regarding B1, the binding result in assay [1] is reported as “binds”. Moreover, the “inhibition of LPS-induced release of TNFα from THP-1 cells, recombinant antibody” value (“inhibition … recombinant antibody” below) in assay [2] turned out to be 59.7 % inhibition.

B2: antibody 54 (antibody, V domains shown)
VH: B1 VH with M34L, W49C, Y61S, I80V, T89S, S92T, F95Y, Y96F, E101L
VL: B1 VL with I10L, V29I, V45L, Y70F
notes: Mouse IgG, kappa light chain; also called clone #54
Turning to B2, the binding result in assay [1] is recorded as “binds”. Moreover, the “inhibition … recombinant antibody” value in assay [2] is 67.9 % inhibition.

B3: antibody 49 (antibody, V domains shown)
VH: B1 VH with K66Q, I71V, S76A, I80V, S92T, T94I, F95Y, I100V, E101G, D111A
VL: B1 VL with V45L, V74I
notes: Mouse IgG, kappa light chain; also called clone #49
Take B3: the binding result in assay [1] is given as “binds”. The “inhibition … recombinant antibody” value in assay [2] stood at 59.9 % inhibition.

B4: antibody 56 (antibody, V domains shown)
VH: B1 VH with A51T, H52N, P63S, A64V, I80V, S92T, F95Y, E101A, N102A
VL: B1 VL with A54S, V74I, N91S
notes: Mouse IgG, kappa light chain; also called clone #56
On to B4, for which the binding result in assay [1] was “binds”. Moreover, the “inhibition … recombinant antibody” value in assay [2] was 65.8 % inhibition.

B5: antibody 34 (antibody, V domains shown)
VH: QVTLKESGPGILQPSQTLSLTCSFSGFSLSTFSLGVGWIRQSSGKGLEWLAHIWWDDEKYYNPALKSRLTISKDTSKNQVFLKIANVDAADTATYYCARAYYSKSYYALDYWGQGTSVTVSS
VL: DIQMTQSPSSLSASLGERVSLTCRASQEISGYLSWLQQKPDGTIKRLIYAASTLDSGVPKRFSGSRSGSDYSLAISSLESEDFADYYCLQYANFPFTFGSGTKLEIK
notes: Mouse IgG, kappa light chain; also called clone #34; m34
Turning to B5, the binding result in assay [1] was “binds”. Further, in assay [2], the “inhibition of LPS-induced release of TNFα from THP-1 cells, 10 µg/ml, antibody purified from hybridoma” value came out at 27.3 % inhibition; the “inhibition … recombinant antibody” value came to 73.8 % inhibition; the “inhibition of PMA-induced release of HB-EGF from THP-1 cells, 3 µg/ml” value came to 64.2 % inhibition; the “inhibition of PMA-induced release of HB-EGF from U-937 cells” value worked out at 98.2 % inhibition. In assay [2], the “inhibition of PMA-induced release of IL-6R from THP-1 cells, 1 µg/ml” value came out at 71.1 % inhibition; the “inhibition of PMA-induced release of IL-6R from U-937 cells, 1 µg/ml” value was found to be 69.3 % inhibition; the “inhibition of PMA-induced release of IL-6R from U-937 cells, 3 µg/ml” value came out at 74.6 % inhibition; the “inhibition of PMA-induced release of TNFα from U-937 cells, 1 µg/ml” value was found to be 68.6 % inhibition. In assay [2], the “inhibition of PMA-induced release of TNFα from U-937 cells, 3 µg/ml” value amounted to 79.9 % inhibition.

B6: antibody 46 (antibody, V domains shown)
VH: QVTLKESGPGILQPSQTLSLTCSFSGFSLSTFGMGVGWIRQPSGKGLEWLAHIWWDDDNYYNQALKSRLTISKDNTKNQVFLNIANVDTADTATYYCARIRSYDYDVRYAMDYWGQGTSVTVSS
VL: DIKMTQSPSSMYASLRERVTITCKASQDINSYLSWFQQKPGKSPKTLIYRANRLVDGVPSRFSGSGSGQDYSLTISSLEYEDLGIYYCQQYYEFPLTFGAGTRLELK
notes: Mouse IgG, kappa light chain; also called clone #46
On to B6, for which the binding result in assay [1] was “binds”. Besides, the “inhibition … recombinant antibody” value in assay [2] worked out at 36.1 % inhibition.
